{"source": "patent US20250052758A1", "about": "(PIERRE FABRE MEDICAMENT, published 2025)", "target": "T1, P-selectin glycoprotein ligand 1 (PSGL-1) expressed by cells (naive human T cells, HL-60 cells, PBMCs) (human, UniProt Q14242 42-412)", "T1 construct": "also called SELPLG; CD162", "T1 sequence": "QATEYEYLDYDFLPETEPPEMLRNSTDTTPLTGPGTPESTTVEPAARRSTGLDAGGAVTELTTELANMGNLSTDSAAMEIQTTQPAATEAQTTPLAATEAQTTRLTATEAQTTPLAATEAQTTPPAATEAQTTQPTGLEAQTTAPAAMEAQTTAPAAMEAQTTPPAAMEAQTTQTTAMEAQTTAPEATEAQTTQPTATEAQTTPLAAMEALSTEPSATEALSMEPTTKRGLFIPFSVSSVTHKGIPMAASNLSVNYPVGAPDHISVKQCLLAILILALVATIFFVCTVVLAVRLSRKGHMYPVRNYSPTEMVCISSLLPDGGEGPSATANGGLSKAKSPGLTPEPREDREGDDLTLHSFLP", "assay": "CAPTIREC/TRICEPS ligand-receptor capture on naive human T cells, LC-MS/MS; enrichment against the anti-CD28 antibody control", "method": "An overview of the […]™ procedure is outlined in FIG. 1. Briefly, the VISTA-Fc fusion protein and the anti-CD28 antibody were separately coupled with TRICEPS™ Naïve human T cells were isolated from commercially available primary human T cells. The surface glycoproteins of the naïve T cells were selectively oxidized. Ligand binding and receptor coupling to the cell surface of the oxidized naïve T cells was performed. The reacted T cells were then lysed and the resulting lysate was affinity purified for the ligand-receptor protein complexes. The purified proteins where then cleaved by trypsin digestion, thereby releasing receptor peptides. The resulting receptor peptides were analyzed by liquid chromatography-tandem mass spectrometry (LC-MS/MS). […]\nThe resulting receptor peptides were analyzed by LC-MS/MS on a Thermo LTQ Orbitrap XL spectrometer fitted with an electrospray ion source. The samples were measured in data dependent acquisition mode in a 120 min gradient using a 10 cm C18 packed column. Six individual samples in the […]™ dataset were analyzed with a statistical ANOVA model. […]\nPeptide identifications were filtered to an FDR of <=1% and quantified using an MS1-based label-free approach. For the MS1 quantification, the nonlinear DYNAMICS Progenesis QI for proteomics software was used, set to consider all unique peptides. […]", "data": [{"binder": "VISTA-Fc fusion protein (Fc fusion) FKVATPYSLYVCPEGQNVTLTCRLLGPVDKGHDVTFYKTWYRSSRGEVQTCSERRPIRNLTFQDLHLHHGGHQAANTSHDLAQRHGLESASDHHGNFSITMRNLTLLDSGLYCCLVVEIRHHHSEHRVHGAMELQVQTGKDAPSNCVVYPSSSQDSENIRSVECPPCPAPPVAGPSVFLFPPKPKDTLMISRTPEVTCVVVDVSHEDPEVKFNWYVDGVEVHNAKTKPREEQYNSTYRVVSVLTVLHQDWLNGKEYKCKVSNKGLPSSIEKTISKAKGQPREPQVYTLPPSREEMTKNQVSLTCLVKGFYPSDIAVEWESNGQPENNYKTTPPVLDSDGSFFLYSKLTVDKSRWQQGNVFSCSVMHEALHNHYTQKSLSLSPGK", "values": [{"measurement": "Log2 FC", "result": 2.33, "unit": "log2 fold change"}]}]}
